One protein from US20050181476 can be followed below.

Sequence of E-MyD88S (chain, as listed by the source): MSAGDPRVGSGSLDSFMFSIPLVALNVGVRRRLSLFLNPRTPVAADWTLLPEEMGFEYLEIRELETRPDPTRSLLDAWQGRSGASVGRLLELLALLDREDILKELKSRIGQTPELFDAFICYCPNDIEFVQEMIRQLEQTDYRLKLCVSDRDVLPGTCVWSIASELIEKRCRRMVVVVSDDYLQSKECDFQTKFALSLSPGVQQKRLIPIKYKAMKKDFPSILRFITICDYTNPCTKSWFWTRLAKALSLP

B1: IRAK-4 (protein)
chain: MNKPITPSTYVRCLNVGLIRKLSDFIDPQEGWKKLAVAIKKPSGDDRYNQFHIRRFEALLQTGKSPTSELLFDWGTTNCTVGDLVDLLIQNEFFAPASLLLPDAVPKTANTLPSKEAITVQQKQMPFCDKDRTLMTPVQNLEQSYMPPDSSSPENKSLEVSDTRFHSFSFYELKNVTNNFDERPISVGGNKMGEGGFGVVYKGYVNNTTVAVKKLAAMVDITTEELKQQFDQEIKVMAKCQHENLVELLGFSSDGDDLCLVYVYMPNGSLLDRLSCLDGTPPLSWHMRCKIAQGAANGINFLHENHHIHRDIKSANILLDEAFTAKISDFGLARASEKFAQTVMTSRIVGTTAYMAPEALRGEITPKSDIYSFGVVLLEIITGLPAVDEHREPQLLLDIKEEIEDEEKTIEDYIDKKMNDADSTSVEAMYSVASQCLHEKKNKRPDIKKVQQLLQEMTAS
On to B1, for which, in the series with MyD88, the “IRAK-4-induced IRAK-1KD phosphorylation (slower migrating species in SDS-PAGE; in vitro kinase assay)” value is given as “Addition of MyD88, however, significantly enhanced IRAK-4-induced IRAK-1KD phosphorylation”. Also, the “in vitro phosphorylation of IRAK-1KD induced by IRAK-4 co-expression” value in the series with E-MyD88S is “in vitro phosphorylation of IRAK-1KD induced by IRAK-4 co-expression was completely inhibited when MyD88S was co-expressed”.
